Measurements reported in publication PMC4834553.

Tests used:
Vn^80–396 (human) = experiment: BLI; Octet RED96; Vn 80–396 immobilised on AR2G sensors by amine coupling at pH 5; KatA as analyte, 1 in 3 dilution series (50–0.055 nM) in PBS, 0.05% Tween20; KD from steady state analysis
[1] = biological target: catalase KatA of H. pylori CCUG18943, endogenous (Helicobacter pylori (endogenous in strain CCUG18943)) (UniProt P77872); experiment: flow cytometry on cells; whole H. pylori (wt and ΔkatA) incubated with 3 μg human serum Vn per 10^6 cells, 1 h, 37 °C, PBS 1% BSA; sheep anti-human Vn Ab and FITC-conjugated anti-sheep pAb
[2] = biological target: catalase KatA of H. pylori KR497, endogenous (Helicobacter pylori (endogenous in strain KR497)) (UniProt P77872); experiment: as above
[3] = biological target: catalase KatA of H. pylori KR697, endogenous (Helicobacter pylori (endogenous in strain KR697)) (UniProt P77872); experiment: as above

Row | Substance | Kd (Vn^80–396 (human)) | koff (Vn^80–396 (human)) | kon (Vn^80–396 (human)) | reduction of Vn binding to whole bacteria on deletion of katA [1] | reduction of Vn binding to whole bacteria on deletion of katA [2] | reduction of Vn binding to whole bacteria on deletion of katA [3]
1 | full length recombinant KatA (from UniProt P77872 1-505) | 1 nM | 0.0003 s⁻¹ | 1e+06 M⁻¹ s⁻¹ | – | – | –
2 | human serum vitronectin (Vn), activated, purified from serum (natural protein) | – | – | – | 21% | 50% | 50%
